B1: F-box only protein 4 (Homo sapiens), Q9UKT5 (parent)
chain: MAGSEPRSGTNSPPPPFSDWGRLEAAILSGWKTFWQSVSKERVARTTSREEVDEAASTLTRLPIDVQLYILSFLSPHDLCQLGSTNHYWNETVRDPILWRYFLLRDLPSWSSVDWKSLPDLEILKKPISEVTDGAFFDYMAVYRMCCPYTRRASKSSRPMYGAVTSFLHSLIIQNEPRFAMFGPGLEELNTSLVLSLMSSEELCPTAGLPQRQIDGIGSGVNFQLNNQHKFNILILYSTTRKERDRAREEHTSAVNKMFSRHNEGDDQQGSRYSVIPQIQKVCEVVDGFIYVANAEAHKRHEWQDEFSHIMAMTDPAFGSSGRPLLVLSCISQGDVKRMPCFYLAHELHLNLLNHPWLVQDTEAETLTGFLNGIEWILEEVESKRAR
B2: 14-3-3 protein epsilon (Rattus norvegicus (Rat)), P62260 (parent)
chain: MDDREDLVYQAKLAEQAERYDEMVESMKKVAGMDVELTVEERNLLSVAYKNVIGARRASWRIISSIEQKEENKGGEDKLKMIREYRQMVETELKLICCDILDVLDKHLIPAANTGESKVFYYKMKGDYHRYLAEFATGNDRKEAAENSLVAYKAASDIAMTELPPTHPIRLGLALNFSVFYYEILNSPDRACRLAKAAFDDAIAELDTLSEESYKDSTLIMQLLRDNLTLWTSDMQGDGEEQNKEALQDVEDENQ

Assays:
[1] = variants of: B1; settings: with 1433e_human YWHAE
[2] = variants of: B1; settings: with 1433e_mouse Ywhae
[3] = variants of: B1; settings: with 1433e_human YWHAE; remark: listed apart in the source
1433e_rat Ywhae, P62260 = variants of: B1; settings: with 1433e_rat Ywhae, P62260
fbx4_human FBXO4, Q9UKT5 = variants of: B2; settings: with fbx4_human FBXO4, Q9UKT5

effect of a mutation on the interaction [1] | effect of a mutation on the interaction [2] | effect of a mutation on the interaction [3] | effect of a mutation on the interaction (1433e_rat Ywhae, P62260) | effect of a mutation on the interaction (fbx4_human FBXO4, Q9UKT5) | Variant
decreasing interaction | disrupting interaction | disrupting interaction | decreasing interaction | – | MAGSEPRRGTNSPPPPFSDWGRLEAAILSGWKTFWQSVSKERVARTTSREEVDEAASTLTRLPIDVQLYILSFLSPHDLCQLGSTNHYWNETVRDPILWRYFLLRDLPSWSSVDWKSLPDLEILKKPISEVTDGAFFDYMAVYRMCCPYTRRASKSSRPMYGAVTSFLHSLIIQNEPRFAMFGPGLEELNTSLVLSLMSSEELCPTAGLPQRQIDGIGSGVNFQLNNQHKFNILILYSTTRKERDRAREEHTSAVNKMFSRHNEGDDQQGSRYSVIPQIQKVCEVVDGFIYVANAEAHKRHEWQDEFSHIMAMTDPAFGSSGRPLLVLSCISQGDVKRMPCFYLAHELHLNLLNHPWLVQDTEAETLTGFLNGIEWILEEVESKRAR [S8R]
– | disrupting interaction | disrupting interaction | decreasing interaction | – | MAGSEPRSGTNAPPPPFSDWGRLEAAILSGWKTFWQSVSKERVARTTSREEVDEAASTLTRLPIDVQLYILSFLSPHDLCQLGSTNHYWNETVRDPILWRYFLLRDLPSWSSVDWKSLPDLEILKKPISEVTDGAFFDYMAVYRMCCPYTRRASKSSRPMYGAVTSFLHSLIIQNEPRFAMFGPGLEELNTSLVLSLMSSEELCPTAGLPQRQIDGIGSGVNFQLNNQHKFNILILYSTTRKERDRAREEHTSAVNKMFSRHNEGDDQQGSRYSVIPQIQKVCEVVDGFIYVANAEAHKRHEWQDEFSHIMAMTDPAFGSSGRPLLVLSCISQGDVKRMPCFYLAHELHLNLLNHPWLVQDTEAETLTGFLNGIEWILEEVESKRAR [S12A]
– | – | – | – | disrupting interaction | MDDREDLVYQAKLAEQAERYDEMVESMKKVAGMDVELTVEERNLLSVAYENVIGARRASWRIISSIEQKEENKGGEDKLKMIREYRQMVETELKLICCDILDVLDKHLIPAANTGESKVFYYKMKGDYHRYLAEFATGNDRKEAAENSLVAYKAASDIAMTELPPTHPIRLGLALNFSVFYYEILNSPDRACRLAKAAFDDAIAELDTLSEESYKDSTLIMQLLRDNLTLWTSDMQGDGEEQNKEALQDVEDENQ [K50E]
